From the DeepSol protein solubility set

Experiment: soluble on expression in E. coli; label from the status in PepcDB or PDB records

Sequence | soluble on expression in E. coli
MGSDKIHHHHHHMEISFTRVALLAAALFFVGCDQKPQPAKTHATEVTVLEGKTMGTFWRASIPGIDAKRSAELKEKIQTQLDADDQLLSTYKKDSALMRFNDSQSLSPWPVSEAMADIVTTSLRIGAKTDGAMDITVGPLVNLWGFGPEQQPVQIPSQEQIDAMKAKTGLQHLTVINQSHQQYLQKDLPDLYVDLSTVGEGYAADHLARLMEQEGISRYLVSVGGALNSRGMNGEGLPWRVAIQKPTDKENAVQAVVDINGHGISTSGSYRNYYELDGKRLSHVIDPQTGRPIEHNLVSVTVIAPTALEADAWDTGLMVLGPEKAKEVVRREGLAVYMITKEGDSFKTWMSPQFKSFLVSEKN | not soluble
MGSDKIHHHHHHLEEILKLKASDTASLEARGEANKKYGIQDFDTWVKRILSRINCSSVLDVCCGTGNQLTYYIQMPCTTNILGVDISKDSLKIARQRCEYLLSTNKKLTLKCCKMEEMFDDKEIDRQYDLISCFYGLYYAEDVDVIVERMIDHLNHKGVFLIVGPYGKNNASLFEIIQKHCMIPELVIKSSTTFMQEDLILKLVTLPGISVDTETFVNPILYPSPQAVMDYWQASTFYVPQYHSTIQQELEKRFENHDVFVVEKHIMAIIASKL | not soluble
MQVLDKTQVEAVSKALGEPAWLLEKRLKALEAFARLPYPSKKDENWRYTDLSEAPLELPVEAPKGLRLSRDDLPEPVKRRLERTDVSGFLVFVGPDLVYAEVPEALKEKGLVFTSLAEALKTHPDKVEAALFQAVYTEDKFAAQNSAFFTHGAFLYVPAGLEVEKPLGVFKVLLEGEKASAGRSLLFLEDNAKAAYIEEYLSLDLPPTLHLSATEMVLRPGARLRHAHVQTFGEGVWHFHRQRALLERDSGLNDLVVNLGGAYARSEVASELVGPGAESEMLGLYFGHGRQQFDHYTLQHHVEHHTRSDLLYKGAVKDEARAVFSGLIRLEKGAQKTDAYQANRNLLLSPTARVDSIPQLEIGANDVRCTHGSTTAPVDEMQLFYLQSRGLPRGLAQELLVKAHLADVLSRIPLKALRAHIEAVIEEKVRI | soluble
MSLGNAMNITSCISQSECSCQLSESTSDTNSNSSFKTRSLGYDRSSQSLSISDVELGFKSVTETSSNNYRLRRIIESNDFFKDVMYKFFLLRENSLVLDQSKSYYSDKDPHYSIICSDYYVFALRRILIEGHHHHHH | not soluble
MGSDKIHHHHHHMDLTTAQVSRLISELETRLGTKLIQRSTRQQALTDIGATYAERCRQVISMVDEAEAEVTGTASKPKGRLRVLSMGSFGHHYVFPVMAEFCKHYPELTVEYTTSQYVPDLLAKGVDVSLYLTESLTDSRFVARRIGTIFSVLCASPAYLEKHGVPKSPEDLKNHACLRLVNPSITPDWHLLNANGESYQIDIGGQLIADNPELLLDVVQQDMGVALLPMFSALDAVQNGRLCHILPEWRSPDIGVYTLLPSRHFIDAKTRAWLDWVEEYISPKIEMDASYFYK | not soluble
MATRSCVSRGSAGSAAAGPVEAAIRAKLEQALSPEVLELRNESGGHAVPAGSETHFRVAVVSSRFEGMSPLQRHRLVHEALSEELAGPVHALAIQAKTPAQWRENPQLDISPPCLG | soluble
MSLNNLNTNIDFIKKSPKTELHLHIEGSLEPELMFKLSKRNKIEIPFKSVDEIRSAYNFTNLDSFLKIYYEGSNVLIREEDFFDLTWEYVLRCKQDNIVHTEIFFDPQSHLPRGISFETVINGIDKALKKAEKDFGISSKIIMCFLRHLDEESCFDVLKKAFDHKDKIIGVGLDSSEKGNPPSKFKRLFEQAVKEGFITVAHAGEEGPPEYIWDSLDILKVKRIDHGVQCLNDEKLVNKLVKEQIPLTVCPLSNVKLCVFDKLENHNLKKMLDKGLRVMVNSDDPAYFGGYLNKNLIETSRALNLNLVDIKKLIENSFKSSFLEKEKKENWLKKINEGHHHHHH | soluble
MAKEFLIELGTEELPPTQLRTLAEAFAANFEAELKGAELAHEGVKWFAAPRRLALKVAALAESQSDKVVEKRGPAVSAAFDAEGNPTKAAQGWARGCGITVDQADRMVTDKGEWLLFKQEVKGQPTSEIVVELAAKALANLPIAKPMRWGNKTTQFIRPVKTLTMLMGSDLIEGEILGVASSRTIRGHRFMGEKEFTIDSAEQYPAILEERGKVMADYEARKAIILADAQKAAAAVGGIADLEDDLVEEVTSLVEWPVVLTAKFEEEFLKVPSEALVYTMKGDQKYFPVYDENKKLLPNFIFVSNIESKEPRYVIEGNEKVVRPRLADAEFFFNTDRKRPLIDRLPELEQAIFQQQLGTIKDKTDRITELAGYIAEQIGADVEKSKRAGLLAKCDLMTSMVFEFTDTQGVMGMHYARHDGEAEEVAVALNEQYMPRFAGDELPSNGVSTAVAMADKLDTIVGIFGIGQAPKGSDPFALRRASLGVLRIIVEYGYNLDLVDLVAKAKSLFGDRLTNDNVEQDVIEFMLGRFRAWYQDEGFSVDIIQAVLARRPTK | not soluble
MKTVDSELFDSGPFKKNFAFGNADHSTASPFEISTTPIEVNESRAHKTIEISNRARLESQNDGCLSPSSLKSVLDEIQTEPRCKSPQHIDLHTFRDAVDVNYQRMAITGEELSGVPLEDLKTASGHLIEALHLRSKYMERIGNQFPSTTRNFLSGHYPANLPKHRVKNTETTVQTSFNPPDPPKDHWGKNDPLPKYEKIYHLRRNRGVTEICNDDGSIDQQFKNVNVTKEEFLNDTEKLTAMIVDGPLKSFCFRRLSYLENKFQLHVLLNELRELHEQKGVSHRDFYNIRKVDTHIHAASSMNQKHLLRFIKKKIKTEADTVVLNNNGTKVTMKEVFKKMGIDAYDLSVDMLDVHADRNTFHRFDKFNTKYNPVGESTLREIFIKTDNYVGGKYFADLLKEVLSDLEDSKYQHAEPRLSIYGRSKNEWDNLAKWALTHDVWSPNARWLVQIPRLYDVYRAKNMVKNFDDMLDNLFTPLFEVTNDPSSHPELHLFLQQISGIDSVDDESKHEFVNFDRSTPCPPEYTDLENPPYNYYLFYMYRNICALNAFRRARGLNTFALRPHCGEAGHVSHLLTGYLTSESIAHGILLRKVPVLQYLYYLTQIGIAMSPLSNNSLFISYQRNPLPEYLQKGLNVSLSTDDPLQFHYTKEALMEEFSIAAQVWKLSSCDMCELARNSVMQSGFEDKVKIHWLGPNYKEEGVLGNDIHRTNVPDIRVSFRHEALVDELYNLFRVQNTLKQ | not soluble
YIQLEGEKFNESARVFTEYLKTKTSDEIPSLLQSYSKSLTISAHLKRDIVDKRLPLVHDLDIKDGKLSNYIVMLDMSVSTADGKQVTVQFVHGVDVYKEAKNI | not soluble
MFAIAHNSILRDSLAGILQLSPERVFDEYRPPPFTGNIVVGVEDLRDANLRFAVRYFLANVEKSISLFIVKQEWSENDEKFFDDLVKTEYRRAHDLNQVAIDRVNKLPDNEWKSDRLEQLNEWRTIPAINYSLLTLNDNLKNQIDALAKVTPCTISDDEEQITNKPPVLHWTADPLEGEIQFIAQLNFPLSGPDDSSFREICRLLKPHFETSYEWTGGILLTSDPVRLHVQRFNDTQIELAARICVDELEGDEADRPIRFIWPYLAVSLKQALQVLGEHPHLQYSISFVPFGSIFFKSSEIEARVFDATVFCSTALKYDKVGFRVGEDVHHVDIAHIFPDGTYPSLSRLLSMNPPSPRFSRPESVNDSVSPSLMSEPPTPGGLVAPHNRGRRVSFGTIKLMSDGPTTPEIPILNGNSNDGSAKTVDAFIDKMLQQTMDQLAV | not soluble
MAGDRKRGFIRPDEDYALIEPQRWGLPDYGDSKEKKAKQTAFNYDPSWVPNFDEPEEEQALELTEEQIELIKQGAYQEGLYQGQEAGFKQGYDKGKEEGLQAGHAEGLELGKAEGVSAGQEFIQQQVEVFMNLANQFAQPLELMNAQVEKQLVDMVLCLVKEVVHVEVQTNPQIILDTVKQSVEALPISGHPITLHLNPEDVAIIRSAYGEEDLDCRNWTLVSEPSLNRGDVQIEAGESSINYRMEERIKSVLHSFCGANRHQEGE | not soluble
MAIIASTFGTGLSYAGELPFKPVTGGEVGRKQQRMVVVRAEGGGGINPEIRKNEDKVVDSVVVTELSKNITPYCRCWRSGTFPLCDGSHVKHNKANGDNVGPLLLKKQ | soluble
MGHHHHHHSHMSDWLEHSVQVEVAVPVARAWELWSDLEQMPRWMKWIDSVQVQKDDPELSRWKLASQGFEFSWLSRITRLVPQQLIQWESVDGLPNRGAIRFYDRQDHSIVRLSISYAIPGGLGPLMDKLFLGRIVEGTLKADLDRFRHYAESPR | not soluble
MNLFGQKDRGNHVSGVDRGKVIMYGLSTCVWCKKTKKLLTDLGVDFDYVYVDRLEGKEEEEAVEEVRRFNPSVSFPTTIINDEKAIVGFKEKEIRESLGF | soluble
MGSDKIHHHHHHMKITFPNLGNTLYAAKALFDNLEIEYVLPPNSSKKCLEIGSLYSPEDICLPFKIMIGAYIDSIERGADTILITGSCGPCRFGEYCELQINLLKKLGHDVDFIVLDRPSSIGKTEFLNRLSKISGSSSISSYKKLKAVYSAYKIINLIDYIEKTARYKAGFELKKGECKKILQTCKKSALTCNNAESMIDLLTKYKHMINHVPIDSTKTPLKVSIIGEIYTILEPFSNLYIENKLMDLGISTQKNITPSWWFKDAMLSNLNLNSINLRMNSKKYLPYYIGGHGRECVGEAVMASNSGFDGAIQLFPMGCMPEIVSKSILPTISRDKDFPILSLIIDEMTGDAGYMTRIEAFIDLLERRKNRCII | not soluble
MGSDKIHHHHHHMLSHEDNETLVRVGPGTPTGQFMRLYWLPFLPSSDLTVDGQPQRVRLLGEDLIAFRDSEGRVGLVDHVCPHRGAPLVFGRNENCGLRCVYHGWQFGVDGQVIDTPAEPAESRLKDKVRIRSYPCRERNGIVWAYMGEADANALPPLPNLEWNMVPLENVHFSFRVQECNWLQAVEGEIDSAHAPILHGRIDSQGAINEWTAKRDLRPVFECQRREFGISIASRRVLDDSHHYWRVNQFLFPFYTLVPPQSKYPELSGHAWVPVDDENTLCLMFSYTPAAPLYEKTRKLFEDGHAGRETGHASAHAFAPRPVTQPYAKYWTRFNLESAFQFDYDAQTKTWFSGLPGLWVQDAACQSGVAPIYDRRKENLGISDTGVAMTRRLLLENVRKLASERVSPVRVDDPDLWMVRAVSLTLPAGAPWQSDGAEHMRARLGADFGYTP | not soluble
GSSSGGGSSSSGTSSAFSSYFNNKVGIPQEHVDHDDFDANQLLNKINE | soluble
TKIAMANFKSAMPIFKSHAYLKELEKTLKPQHFDRVFVFPDFFGLLPNSFLHFTLGVQNAYPRDCGAFTGEITSKHLEELKIHTLLIGHSERRTLLKESPSFLKEKFDFFKSKNFKIVYCIGEELTTREKGFKAVKEFLSEQLENIDLNYPNLVVAYEPIWAIGTKKSASLEDIYLTHGFLKQILNQKTPLLYGGSVNTQNAKEILGIDSVDGLLIGSASWELENFKTIISFL | soluble
MKNETLHTQEDIIKMLDSLLRPAEPFWNEFYANREKDVPFFENVPDENLVSYIQKKRVSKGKVLELGCGPGRNAIYLANEGFDVTAVDVSIEGINWAKERALAKGVEIEFICDSIFNLEVQNEFDFVYDSGCLHHIPPHRRVNYVDLIKNALKSGGYFGLTCFAAGDLDERNGSEITDWDVYRGWSLQGGLAYSEEKLREIFKGFEVIEIRKMEQIEQPNTMFGESFLWTALFKKNLEHHHHHH | soluble
AHHHHHHGSSEVYRLTCIVCPLSCSIEVEIEAGKIKDIKGYTCPRGKEWAIEEIRAPKRVVMSVIPVEGGKLPTVSVKTEKPIPKDKIPELMKMLAKLKLKAPVKVGQVVGEFEGVKIIATREA | soluble
